The record followed here is patent US20180194850A1 (GENERAL HOSPITAL, published 2018).

Assay [1] deals with T1, S03933.
T1 sequence (peptide): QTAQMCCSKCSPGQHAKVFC
Nature of the assay: linear peptide ELISA (absorbance); Affinity +.

For assay [2], the target named is T2, peptide fragment defined by residues 130-149 of SEQ ID NO: 7 within human TNFR2 (KQEGCRLCAPLRKCRPGFGV) (human).
T2 construct: also called linear peptide containing the KCRPG motif
T2 peptide: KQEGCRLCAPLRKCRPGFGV
Nature of the assay: comparison of affinity for linear peptides; assay not named in the sentence (linear peptide ELISA, FIG. 13B). The protocol: ELISA was also used to determine linear epitopes present on the extracellular surface of TNFR2.
Linear peptides corresponding to various regions within the TNFR2 primary sequence were purchased from GenScript (Piscataway, N.J.), diluted in coating buffer and placed on Immulon 4HBX Flat Bottom Microtiter Plates (Thermo Scientific) at a concentration of 1 μg/well. Primary TNFR2 antagonistic antibodies (0.1 μg/well) were incubated with substrates. Secondary antibodies against rodent IgG were used to detect the primary antibodies. Absorbance was measured using the SPECTRAMAX® 190 Absorbance Plate Reader and analyzed with SoftMax Pro 6.3 (Molecular Devices).
(In general: ELISA stands for enzyme-linked immunosorbent assay.)

Assay [3] has as its target T3, EGCRL2….
T3 sequence (peptide, 2 = Cys(Acm)): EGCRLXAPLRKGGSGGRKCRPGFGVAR
Nature of the assay: CLIPS peptide-array ELISA [Continued].

B1: antagonistic TNFR2 antibody TNFRAB1 (antibody, V domains shown)
VH: EVQLQESGGGLVKPGGSLKLSCAASGFTFSSYVMSWVRQTPEKRLEWVATISSGGSYTYYPDSVKGRFTISRDNAKNTLYLQMSSLRSEDTAMYYCARQRVDGYSSYWYFDVWGAGTAVTVSS
VL: DIVLTQSPAIMSASPGEKVTITCSASSSVYYMYWFQQKPGTSPKLWIYSTSNLASGVPVRFSGSGSGTSYSLTISRMEAEDAATYYCQQRRNYPYTFGGGTKLEIKR
notes: Murine monoclonal IgG; For SPR the antibody was biotinylated and captured on streptavidin; also called TNFR2 antagonist 1
Consider B1, for which the Reading in assay [1] turned out to be 0.1. Also, the “fold greater affinity than for the peptide of residues 48-67 (…, SEQ ID NO: 18)” value in assay [2] worked out at 40 fold. Besides, the Raw luminescence data in assay [3] stood at 358.
